Target: truncated human FcRH5 (deletion of amino acids 1-744) with N-terminal gD tag (human) (UniProt Q96RD9)
Assay: cell-based or functional assay

truncated human FcRH5 (deletion of amino acids 1-744) with N-terminal gD tag (human), sequence (Q96RD9 745-977, stated change not applied): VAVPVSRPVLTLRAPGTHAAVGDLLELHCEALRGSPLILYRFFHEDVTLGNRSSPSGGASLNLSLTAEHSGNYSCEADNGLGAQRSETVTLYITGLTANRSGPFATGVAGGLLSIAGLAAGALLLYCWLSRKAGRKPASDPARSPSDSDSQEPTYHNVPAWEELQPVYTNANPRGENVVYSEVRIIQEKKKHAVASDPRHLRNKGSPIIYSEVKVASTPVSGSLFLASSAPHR

Substance: anti-gD/UCHT1.v9 TDB (bispecific antibody)
- target cell killing, EC50: 190 pM

Reference: patent publication US20220048993A1
